Results as given in article PMC4538820, “The XRCC1 phosphate-binding pocket binds poly (ADP-ribose) and is required for XRCC1 function” (Nucleic Acids Research, 2015).

Columns and labels:
[1] = target: mock-ribosylated histone H1 (adsorbed to microwells, no NAD+); assay: microwell plate binding assay (absorbance at 450 nm); conditions: 0 μM NAD+, read off a plot
[2] = target: ribosylated histone H1 (adsorbed to microwells, ribosylated with PARP1 and NAD+); assay: as above; conditions: read off a plot
[3] = target: T1, ribosylated PARP1 (adsorbed to microwells, ribosylated with PARP1 and NAD+) (human, UniProt P09874 1-1014, poly (ADP-ribosyl)ated by PARP1 in the presence of 1–50 μM NAD+; sites not stated); assay: ELISA; PARP1, histone H1 or BSA adsorbed to microwells (0.1 mg/ml in PBS), mock-ribosylated (no NAD+) or ribosylated with 5 nM PARP1 and 1–50 μM NAD+; 25 nM His-XRCC1 in 20 mM Tris pH7.5, 130 nM NaCl, 30 min on ice; detected with anti-His Mab and HRP secondary, A450; conditions: both partners purified
T1 construct: PARP1, poly (ADP-ribose) polymerase 1; 'recombinant, human, full length' is printed for the 5 nM PARP1 of the reaction; Species and form are printed for the PARP1 used as enzyme; I took the adsorbed PARP1 to be the same preparation; also called PARP1 +NAD+; autoribosylated PARP1; source: recombinant
T1 sequence (P09874 whole entry): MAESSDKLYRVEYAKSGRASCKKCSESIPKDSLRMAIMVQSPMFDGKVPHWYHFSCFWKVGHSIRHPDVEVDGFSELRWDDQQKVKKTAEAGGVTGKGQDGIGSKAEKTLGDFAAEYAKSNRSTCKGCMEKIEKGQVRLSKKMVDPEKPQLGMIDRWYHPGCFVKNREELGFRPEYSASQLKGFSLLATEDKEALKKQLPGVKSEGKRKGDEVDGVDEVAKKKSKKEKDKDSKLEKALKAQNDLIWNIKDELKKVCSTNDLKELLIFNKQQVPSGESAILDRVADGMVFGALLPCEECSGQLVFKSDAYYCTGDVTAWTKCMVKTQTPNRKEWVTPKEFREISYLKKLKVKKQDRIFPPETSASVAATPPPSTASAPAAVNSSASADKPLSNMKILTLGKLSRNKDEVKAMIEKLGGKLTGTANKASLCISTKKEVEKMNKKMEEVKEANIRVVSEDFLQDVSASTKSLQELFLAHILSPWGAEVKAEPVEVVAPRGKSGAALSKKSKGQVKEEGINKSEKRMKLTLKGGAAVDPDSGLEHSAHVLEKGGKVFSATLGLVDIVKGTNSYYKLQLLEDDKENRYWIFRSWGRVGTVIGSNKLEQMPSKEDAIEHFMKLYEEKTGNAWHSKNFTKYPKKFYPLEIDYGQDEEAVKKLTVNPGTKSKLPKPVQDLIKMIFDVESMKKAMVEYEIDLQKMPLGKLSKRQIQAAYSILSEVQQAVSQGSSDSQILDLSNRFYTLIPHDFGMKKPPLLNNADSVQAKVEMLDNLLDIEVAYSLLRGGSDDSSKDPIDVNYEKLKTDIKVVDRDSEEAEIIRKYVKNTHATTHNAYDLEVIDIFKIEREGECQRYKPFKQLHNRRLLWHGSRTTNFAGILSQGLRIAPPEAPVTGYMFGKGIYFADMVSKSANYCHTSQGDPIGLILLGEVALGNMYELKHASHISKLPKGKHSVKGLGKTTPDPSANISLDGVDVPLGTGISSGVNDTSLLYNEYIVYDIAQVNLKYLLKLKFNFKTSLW

Molecule	response ([1]; adsorbed histone H1 mock-ribosylated, parent: est. 0.11) [Abs 450nm]	response ([1]; left panel, calf thymus histone mock-ribosylated, no competitor, parent: est. 0.10) [Abs 450nm]	response ([2]; adsorbed histone H1 ribosylated with 1 μM NAD+, parent: est. 1.7) [Abs 450nm]	response ([2]; adsorbed histone H1 ribosylated with 10 μM NAD+, parent: est. 2.1) [Abs 450nm]	response ([2]; adsorbed histone H1 ribosylated with 50 μM NAD+, parent: est. 2.2) [Abs 450nm]	response ([2]; left panel, calf thymus histone ribosylated with 0.5 μM NAD+, no competitor, parent: est. 0.82) [Abs 450nm]	binding result [3]
His-XRCC1^161–406 (from UniProt P18887) R335A; K369A	0.1	0.12	0.12	0.78	1.2	0.11	–
His-XRCC1^161–406 (domain or fragment, human, UniProt P18887 161-406, looked up, Vector pTWO-E (from pET-17b) adds an N-terminal His6 tag that can be cleaved by rhinovirus 3C; also called wild-type histidine-tagged fragment of human XRCC1 spanning the conserved BRCT1 domain; source: E. coli Rosetta2 (DE3)pLysS, purified (Talon resin, heparin column); not shown: His6, N-terminal, kept) PSQKVTVTKLGQFRVKEEDESANSLRPGALFFSRINKTSPVTASDPAGPSYAAATLQASSAASSASPVSRAIGSTSKPQESPKGKRKLDLNQEEKKTPSKPPAQLSPSVPKRPKLPAPTRTPATAPVPARAQGAVTGKPRGEGTEPRRPRAGPEELGKILQGVVVVLSGFQNPFRSELRDKALELGAKYRPDWTRDSTHLICAFANTPKYSQVLGLGGRIVRKEWVLDCHRMRRRLPSQRYLMAGP	–	–	–	–	–	–	binds
